Laboratory results: patent US20200239517A1

Key:
[1] = biological target: human polyclonal IgG (Gammanorm) (human); assay: SPR; ratio to reference Zvar1 after 0.5M NaOH cycles
[2] = biological target: human polyclonal IgG (Gammanorm) (human); assay: SPR, ligand on chip; IgG signal left after 0.5M NaOH cycles
[3] = biological target: human polyclonal IgG (Gammanorm) (human); assay: SPR; ratio to reference Zvar4 after 0.5M NaOH cycles
[4] = biological target: IgG1 monoclonal antibody (probe molecule of Example 1); assay: Biacore SPR, ligand on CM5 chip, IgG1 mAb as probe
[5] = biological target: human polyclonal IgG (Gammanorm) (human); assay: SPR; ratio to reference Zvar4 after 1M NaOH cycles
[6] = biological target: human polyclonal IgG (Gammanorm) (human); assay: SPR, ligand on chip; IgG signal left after 1M NaOH cycles
[7] = biological target: human polyclonal IgG (Gammanorm) (human); assay: SPR; ratio to reference Zvar6 after 0.5M NaOH cycles

Row | Substance | Capacity relative to reference [1] | Capacity after 96-100 cycles [2] [%] | Capacity relative to ref. 100 cycles [3] | Remaining capacity 100 cycles (%) [2] [%] | other results
1 | Zvar(Q9A, N11E, N28A, Q40V, A42K, N43A, L44I)1 (designed binder) | 1.35 | 65 | – | – | –
2 | Zvar(Q9A, N11E, D37E, Q40V, A42R, N43A, L44I)4 (designed binder) | – | – | 1.17 | 84 | –
3 | Zvar(N11K, H18K, S33K, D37E, A42R, N43A, L44I, K50R, L51Y)1 (designed binder) | 1.46 | 67 | – | – | –
4 | Zvar(Q9A, N11E, Q40V, A42K, N43A, L44I)1 (designed binder) | 1.4 | 66 | – | – | Kd [4]: 1.07 nM; koff [4]: 0.000437 s⁻¹; kon [4]: 410000 M⁻¹ s⁻¹
5 | Zvar(Q9A, N11E, N28A, N43A)4 (designed binder) | – | – | 1.19 | 80 | Capacity relative to ref. 100 cycles [5]: 2.04; Capacity relative to ref. 200 cycles [3]: 1.72; Capacity relative to ref. 300 cycles [3]: 2.62; Remaining capacity 100 cycles (%) [6]: 55%; Remaining capacity 200 cycles (%) [2]: 62%; Remaining capacity 300 cycles (%) [2]: 42%
6 | Zvar(Q9A, N11E, Q40V, A42K, N43E, L44I)4 (designed binder) | – | – | 1.25 | 84 | Capacity relative to ref. 100 cycles [5]: 2; Capacity relative to ref. 200 cycles [3]: 1.81; Capacity relative to ref. 300 cycles [3]: 3; Remaining capacity 100 cycles (%) [6]: 54%; Remaining capacity 200 cycles (%) [2]: 65%; Remaining capacity 300 cycles (%) [2]: 48%
7 | Zvar(Q9A, N11E, D37E, Q40V, A42K, N43A, L44I)4 (designed binder) | – | – | 1.13 | 81 | –
8 | parental B domain of Protein A (from UniProt A0A0H3K686 212-269) | – | – | – | – | Reference capacity after 96-100 cycles [2]: 35%
9 | Zvar(Q9A, N11K, H18K, S33K, D37E, A42R, N43A, L44I, K50R, L51Y)1 (designed binder) | 1.28 | 59 | – | – | –
10 | parental C domain of Protein A (from UniProt A0A0H3K686 270-327) | – | – | – | – | Reference capacity after 96-100 cycles [2]: 49%
11 | Zvar(N11E, Q32E, K50R)1 (designed binder) | 1.04 | 53 | – | – | –
12 | Zvar(Q9A, N11K, H18K, D37E, A42R, N43A, L44I, K50R)1 (designed binder) | 1.49 | 67 | – | – | –
13 | Zvar(Q9A, N11E, Q40V, A42K, N43A, L44I)4 (designed binder) | – | – | 1.34 | 90 | Capacity relative to ref. 100 cycles [5]: 2.07; Capacity relative to ref. 200 cycles [3]: 2.06; Capacity relative to ref. 300 cycles [3]: 3.56; Remaining capacity 100 cycles (%) [6]: 56%; Remaining capacity 200 cycles (%) [2]: 74%; Remaining capacity 300 cycles (%) [2]: 57%
14 | Zvar(Q9A, N11E, Q40V, A42K, N43A, L44I)6 (designed binder) | – | – | – | 87 | Capacity relative to ref. 100 cycles [7]: 1.3
15 | Zvar(Q9A, N11K, H18K, D37E, A42R, N43A, L44I)1 (designed binder) | 1.4 | 63 | – | – | –
16 | Zvar(N11K, H18K, D37E, A42R, N43A, L44I)1 (designed binder) | 1.31 | 59 | – | – | –
17 | Zvar(Q9A, N11E, N28A, Q40V, A42K, N43A, L44I)4 (designed binder) | – | – | 1.24 | 84 | –
18 | Zvar(Q9A, N11E, N43A)4 (designed binder) | – | – | 1.21 | 81 | Capacity relative to ref. 200 cycles [3]: 1.72; Capacity relative to ref. 300 cycles [3]: 2.56; Remaining capacity 200 cycles (%) [2]: 62%; Remaining capacity 300 cycles (%) [2]: 41%
